The nature of this series: amyloid nucleation score (Sup35N fusion, yeast selection) (log enrichment); library NNK2; higher = more nucleation; inactive = no reads after selection. An outline of the steps: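 The nucleation score is a DiMSum log enrichment of output over input reads, centred on the mode score of non-aggregating sequences. Sequences under 100 input reads were excluded, and reads came from Illumina sequencing of plasmid inserts. Psi-negative yeast expressing Sup35N fused to peptides of 20 random codons were induced with 100 μM copper sulfate for 24 hours and grown 7 days at 30°C on medium lacking adenine and uracil. Random libraries had three technical output replicates.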

± gives the uncertainty stated by the source.

RIISHDSCRVIFGKFRVDVW returned an amyloid nucleation score of 1.23 ± 0.57. Consider LVHPALVVWKQYWVVRLRDV, for which the amyloid nucleation score came to 6.43 ± 0.044. In the case of QVFAHIAVSYGLLFFLHWEC it was -0.331 ± 1. With CAMVKFY, the amyloid nucleation score was -1.3 ± 0.62.

As to GGMYKSMRGWLTGCFVAWVV, the amyloid nucleation score was 0.369 ± 0.34. Turning to KHMLASSFVTVPFVAPCFHF, the amyloid nucleation score entry was “inactive”. In the case of GDGLEMCWVA it was -0.226 ± 0.37; in that of VWTCIVFSR, 6.22 ± 0.074. In the case of FPNDKLCNFFFDNNQSLARK it was -1.31 ± 1. On to RFFNPNMLKFALSGQ, for which the amyloid nucleation score is -1.37 ± 0.44. The substance FFDGSVNQYESRYHGCD returned an amyloid nucleation score of -0.37 ± 0.76.

Substance NSKVFS showed an amyloid nucleation score of 0.011 ± 1.1. In the case of MHMLWETTRWASWCGYLCMG it was 4.93 ± 0.059; in that of GYGWKLQMTGGESCVGSHLR, 0.388 ± 0.66; in that of GEQDDVPRFGYTKACEFLFA, “inactive”. Take NADGYSLMQRSNFSQSNGYL: the amyloid nucleation score entry is “inactive”. The substance DIIFVDALMSVTSVQQNLH came in with an amyloid nucleation score of -0.388 ± 0.55. In the case of SYTNLGPAGCVALSKYSVIR it was -1.18 ± 1.1. Substance PSDSECISCSCLDRWYRVFE gave an amyloid nucleation score of 2.94 ± 0.12. For the substance ACLLIFLSTA, the amyloid nucleation score turned out to be 2.31 ± 0.078. Turning to VCLCCYYIYYERFSNGFFLL, the amyloid nucleation score came out at 5.02 ± 0.058. Turning to GVVTSSSRYLY, the amyloid nucleation score came to 0.072 ± 1.1.

ASCWTVGQLTHVSVSMWGFI yielded an amyloid nucleation score of 0.943 ± 0.53.

For the substance SWIIGVWIR, the amyloid nucleation score was -0.287 ± 0.45. In turn, CESWMGAKTITLELTGGDSE yielded an amyloid nucleation score of 0.664 ± 0.38.

PRRNWMLVCTIIFVWNEKEY registered an amyloid nucleation score of 0.034 ± 1.1. Consider LGEYNINLMDGWEGRCRPVR, for which the amyloid nucleation score came to 0.728 ± 0.43.

As for CPCNGTNSLRLAYGYTGNNS, the amyloid nucleation score entry is “inactive”. Substance VSIRDVVGQYSINRVICRSY yielded an amyloid nucleation score of -0.774 ± 0.54. Turning to MNMRAGTEL, the amyloid nucleation score came out at 0.479 ± 0.54. Consider CFYSNWKQGYDICHVSGDRF, for which the amyloid nucleation score is -0.956 ± 0.78. DKYGFSSVSGVTEDFVDGLM displayed an amyloid nucleation score of 0.736 ± 0.6.

Substance ACMIEFRILRYRREMMSICS registered an amyloid nucleation score of 6.489 ± 0.039. With GLNQSSLCNGEMGYCRIIWR, the amyloid nucleation score was -1.03 ± 1.1.

On to VPSRGLF, for which the amyloid nucleation score was determined as 0.815 ± 0.4.

The substance LLFSLYDYRQIDFNSGHRHV registered an amyloid nucleation score of 4.37 ± 0.056. Regarding FQMVLYRYYTTGISGKLLQD, the amyloid nucleation score result was “inactive”. As to LIRVYDSDATTIDRLGVCRW, the amyloid nucleation score is 0.726 ± 0.35. As to FYGAKMSIHSYC, the amyloid nucleation score entry was “inactive”. IVDLNLGSEESLFSYLGMSV showed an amyloid nucleation score of -2.45 ± 0.54. The substance ISDATLGFGLIHVGMDVWGC registered an amyloid nucleation score of 5.76 ± 0.061.

On to TISMEVEYCV, for which the amyloid nucleation score is -0.1 ± 1. As to LVSRSYD, the amyloid nucleation score is -0.341 ± 0.79.

With LSIHLQRTQWYLLFEW, the amyloid nucleation score was 0.01 ± 0.39.

SFKGDDVVYC showed an amyloid nucleation score of -0.052 ± 0.27.

As for FSPTGSITWNCIRYYLVTRS, the amyloid nucleation score is -0.279 ± 0.33. Consider LGLDFLCIRYSGFKCTTF, for which the amyloid nucleation score is 2.34 ± 0.14. Substance SNQCTWNDYSG showed an amyloid nucleation score of -0.565 ± 0.64.

Turning to NTFDVVMT, the amyloid nucleation score was 0.411 ± 0.51. SLSRFCMNLCRFSGGIQSVR had an amyloid nucleation score of -1.34 ± 0.42. Substance CSIPFSVWDCLSWYCKNIRI displayed an amyloid nucleation score of -1.46 ± 0.62. In the case of TDLWFRLATRCNDNDAFFL it was -0.981 ± 1.1. Consider CLAASSGVLYNEVQSYNTLV, for which the amyloid nucleation score entry is “inactive”. In the case of VSMSRGL, the amyloid nucleation score entry is “inactive”. In the case of TAWSMNVHVSANVSTCRPLR it was 1.87 ± 0.2. As to TVCKPIRWLNNEFCDYVSNT, the amyloid nucleation score was -0.644 ± 0.31.

In turn, FMGGFG registered an amyloid nucleation score of 0.079 ± 0.63.

Substance LWGHLNHQWVCVSVMWVYLS showed an amyloid nucleation score of 3.64 ± 0.081. MWRAQFIYLRMQLVVACVGI displayed an amyloid nucleation score of 0.394 ± 0.33. Regarding RVLSIRSFP, the amyloid nucleation score was determined as 1.64 ± 0.13. On to GYDFT, for which the amyloid nucleation score entry was “inactive”. In the case of FYVLWQLVVYAMVMYWDTYS it was “inactive”; in that of QTLMLRSCYNWYPCGAAVVP, 2.5 ± 0.093. FFSTTYNHNSDFAWDQAELY: the amyloid nucleation score came to 0.016 ± 1.1. NDGLSILVASNMCLSFAWAW yielded an amyloid nucleation score of 5.109 ± 0.04. In the case of RFVFQIVSIYISWMVIDKTR it was -0.436 ± 0.78; in that of SYPDELNLEFGCYHQSWTYF, 3.67 ± 0.058; in that of LNIYF, 3.13 ± 0.11.

LRLLQVVGVCCSGTWVDGCW gave an amyloid nucleation score of 6.074 ± 0.04. In the case of RDNYEGLY it was -1.05 ± 0.74; in that of PLCHLLYRSLMFFTLSEVSC, 0.042 ± 0.8; in that of PIGLGVCLVICLKNEVSRCW, 3.37 ± 0.063. On to VPISHLNCYFFW, for which the amyloid nucleation score is 8.686 ± 0.084. In the case of SGGSDMQHS it was 1.61 ± 0.3; in that of RTIVFTLWRDGITKFMVNRD, 0.452 ± 0.43; in that of DVWWTYMYFKMSTVHAMSLF, -0.113 ± 1.1.

Turning to IHFWIMIDHG, the amyloid nucleation score is -0.771 ± 0.35. In the case of PRLGWHVLLVQIAVG it was 2.94 ± 0.085; in that of GLMGLYRRALSTLRRILFMR, -0.072 ± 0.63; in that of RLGSSEACPICLDHFGFIMF, -1.26 ± 0.54. For the substance LFPLI, the amyloid nucleation score amounted to 1.24 ± 0.44. The substance LGNIHIWTSV came in with an amyloid nucleation score of -1.53 ± 0.49. For PLSLYNFIFYNAEVPYVVVT, the amyloid nucleation score was 1.84 ± 0.1. As to DMGNDLRDRVRGFSALMLWR, the amyloid nucleation score result is “inactive”. For TYSVLRHFRRES, the amyloid nucleation score was 0.589 ± 0.31. TWLSLSLYPFSKSYSISAGF showed an amyloid nucleation score of -0.321 ± 1. With VMWKEFLPGILCGCCKLGFS, the amyloid nucleation score is -0.481 ± 0.33. In the case of LGSGVILLVY it was -0.643 ± 1; in that of KGDRKKDCMPDLVYRKLSGV, 0.798 ± 0.67; in that of HLVGEKSSKRDSGGRGPRRY, -0.32 ± 0.61. Consider SHTVTDGWCVV, for which the amyloid nucleation score was found to be 1.52 ± 0.21.

The substance KCLWWFWLQDRKKRVMCLTG gave an amyloid nucleation score of 0.771 ± 0.43.

SLCREVPFLWDFCL came in with an amyloid nucleation score of 0.163 ± 0.63.

In the case of HKKAFVCPRCMVPCRRLWHG, the amyloid nucleation score was determined as 0.232 ± 0.25. Take TSLDRRICKRGTVIVEIPHA: the amyloid nucleation score was 5.28 ± 0.055. In turn, NRFVYLVI gave an amyloid nucleation score of -0.321 ± 0.36. Regarding EYRVYYSRLRSLSTEEPMAS, the amyloid nucleation score is -0.299 ± 0.79.

Turning to CRVFWKLKKRSIMHLPFDSG, the amyloid nucleation score was determined as 1.32 ± 0.34.

LVNWFVDYRSDVSHLQTGKV showed an amyloid nucleation score of 1.08 ± 0.36.

The substance VDICGTRGKRRYCSLRLFAW gave an amyloid nucleation score of -0.594 ± 1.1.

In turn, VGPVMINSSSVTQCTGWNRT yielded an amyloid nucleation score of 3.8 ± 0.091. In the case of LRAGTKWTNPFEQVYMTWCG it was 0.044 ± 1.1; in that of LRNDDIY, -0.533 ± 0.39; in that of GGSGSDYLSPSGIVEGYRLG, -0.663 ± 0.54.

FGWVVSSVSFKVMMAV gave an amyloid nucleation score of -0.084 ± 0.44. The substance KPVGPVYAS yielded an amyloid nucleation score of -0.262 ± 0.48. Regarding NLHYHSSTSSTRNFKYGCAF, the amyloid nucleation score result was “inactive”. In the case of LIGIYLPWSL it was -0.735 ± 0.45; in that of CWRRDNNRGCARRSGVAPAK, 0.495 ± 0.24; in that of ASVLWHFLPSGGARFVCSER, 0.538 ± 0.5. For RDHYCFYRYRKGEFNNTRHP, the amyloid nucleation score is -0.147 ± 0.39. Consider SSDATCGVDGHFRLLITHCG, for which the amyloid nucleation score amounted to 5.9 ± 0.075. PMWRVFAFYRWVALMSLTRI: the amyloid nucleation score entry is “inactive”. With HWCLLNSPNYIEMSLNDFLY, the amyloid nucleation score came to 3.62 ± 0.053.

The substance INSQVDGFSEWPGVVQSKTL registered an amyloid nucleation score of -0.157 ± 0.38. As for FCEWGSEYWGNMDCDACDTA, the amyloid nucleation score is -1.09 ± 0.76.

With SLHFCQTVFFYMQILSMLAC, the amyloid nucleation score result was “inactive”. In the case of KGRVVSCIWGSCPGTSGR it was -0.235 ± 1.1; in that of QLDGWELATHRWCVILYVGC, -0.471 ± 0.48.

Regarding GTLPYDNRTTYAFYLRVCSL, the amyloid nucleation score result is “inactive”.

As for TWGFYAVTCLQLLPRFVKHV, the amyloid nucleation score is -0.374 ± 0.33. Regarding SYLFVSVDLHFIEVFYR, the amyloid nucleation score turned out to be 1.44 ± 0.12. With EPVGYSMLGHVIKTVLVLAR, the amyloid nucleation score entry is “inactive”. Take LMNMSSRSTQCNNQG: the amyloid nucleation score is -0.139 ± 0.55. In the case of IFSTHVEFRWQLILGL, the amyloid nucleation score was -0.426 ± 0.25.

Regarding YQYRDLLVIVRSTMKSNVSV, the amyloid nucleation score was 1.85 ± 0.1.

Turning to KFMARDLRTYFIALQPRCKD, the amyloid nucleation score stood at 6.614 ± 0.05.

Substance QCGRKFFDNRGGGLITPHPV showed an amyloid nucleation score of 0.107 ± 0.42.

TRFGPPVHSKLCPPAMWPGW registered an amyloid nucleation score of 0.691 ± 0.23. IVMGLGLGASVSRGWNN gave an amyloid nucleation score of 3.58 ± 0.069. As for VPFYVFSVIGMIYMHGWVEW, the amyloid nucleation score was -0.748 ± 0.56. SKMSYAYFLSLTMRCVADSM came in with an amyloid nucleation score of 3.35 ± 0.06.

Turning to VLNERYSTLVVAPTRNASGL, the amyloid nucleation score entry is “inactive”. As to TPDLSLLFIIRRCIFSGTPY, the amyloid nucleation score result was “inactive”. Take GRVVSSFSLKSDNFMMYFRI: the amyloid nucleation score was -1.18 ± 1.1.

Take NFYMSKVVSFKNGCM: the amyloid nucleation score came out at 3.3 ± 0.057. In the case of RLCLYN it was -1.2 ± 0.38; in that of TSIIVTMLDPYWVISNSCAH, 5.701 ± 0.038.

Source of the values: the supplement of paper PMC12042874.
